Measured values from publication PMC7336285, “Metabolite‐based genome‐wide association study enables dissection of the flavonoid decoration pathway of wheat kernels” (Plant Biotechnology Journal, 2020).

Columns and labels:
[1] = substrate: COc1cc(-c2cc(=O)c3c(O)cc(O[C@@H]4O[C@H](CO)[C@@H](O)[C@H](O)[C@H]4O)cc3o2)cc(OC)c1O; assay: LC-MS product assay, Michaelis-Menten fit; format: biochemical, Triticum aestivum; conditions: formation of tricin 7-O-malonylglucoside, malonyl-CoA 0.03 mM, Tris-HCl pH 7.4, 37 °C
[2] = substrate: COc1cc(-c2cc(=O)c3c(O)cc(O)cc3o2)cc(OC)c1O; assay: LC-MS product assay, Michaelis-Menten fit; format: biochemical, Triticum aestivum; conditions: formation of tricin 4′-O-glucoside (product postulated), UDP-glucose 0.75 mM, MgCl2 10 mM, Tris-HCl pH 7.4, 37 °C

| Protein | Km [1] | kcat [1] | Km [2] |
| --- | --- | --- | --- |
| TraesCS2B01G472400 (Triticum aestivum) (protein, GST-tagged (pGEX-6p-1), E. coli BL21(DE3), glutathione Sepharose purified, tag cleavage not mentioned) MARLLRTSLVAPSPAGAALHERSLPLTYLDALWLHATPVERVFFYPNATSDVLSNLTDSLSNALAAFYPLAGRLRLTPGAHNRYELHCQPGDGVTFTVAEYHHVGFDELATDEPTEVAKIVPLVPPLPEGGAVLAVQATVLRGGLAIGVTVHHAACDGVSSTHFLRTWAWAAAACSGASAPVPPFVDRSIIRARDDLYDAFTAPRLSSNDDDDGGKPPDSPVVQQLLATFTLSKEHLQSIKEAVAGEAERRGVPLPRATSIIAAFGFIWQCYVRAKPGTDGKAGSSCGGRAYFLLPADHRTRLEPPVPDEYLGNCLGPCIALAPRRDVAAAGADGLFTACAAIATAIDGVVRSGPGCWDGWMERIIEAYTAGDLPLTVAGSPRFRVYDTDFGFGRPAKVDVVSVARTGAMSVAEARSGGGGVEVGISLSAGAMERFNECFADAIASLSS | 20.53 ± 1.02 µM | 81.72 ± 6.11 s⁻¹ |  |
| TraesCS1A01G347100 (Triticum aestivum) (protein, GST-tagged (pGEX-6p-1), E. coli BL21(DE3), glutathione Sepharose purified, tag cleavage not mentioned) MEAANPNPTVVLHACLGVGHLIPMVELAKLFLLRGVPVVIAVPTPPASTADFFSSTASAVAGLEAANPSIAFHHLPPPDYPDPDPHPFLQMLDLLRLTVPSLLAFLRSLPSVAALVLDLFCIDSLDAAAQTGVPAYIYYTSSAGDLAAFLHLPHHFATTEGSFRDMGKAPLRFPGVPPIPASDMPHTVMDRADPICTIRIGHYGRIPEARGVLVNTYEWLEARAVGALREGVCVPGRPTPPVYCIGPLIVSDSAAAQGERHACLSWLDAQPERSVVFLCFGSMGAVSAAELKEIAHGLENSGHRFLWVVRTPPADPAKFFLPRPEPDLDALLPEGFTERTRDRGMVLKMWAPQVEVLRHAATGAFVTHCGWNSVLEAASAGVPMLCWPQYAEQRLNKEFVVDEMKVGVVMEGYDEELVRAEEVERKVRLVMESEEGEKLRERLALAKEKAAEAMADGGPSRMALAEFLKHSKLST |  |  | 6.49 ± 0.71 µM |
